Results on five sequences are retold here after US20180010117.

Holding throughout (experiment): cell_activity
Series [1] concerns ZFN SBS#61027 (engineered). The settings on record: paired with 61024, K562, 800 ng RNA each; 4.5 at 200 ng.
The test system of series [2] is ZFN SBS#61034 (engineered). The settings on record: paired with 61041, K562, 800 ng RNA each; 9.6 at 200 ng; with 61042 26.1.
Series [3] concerns ZFN SBS#61036 (engineered). The settings on record: paired with 61041, K562, 800 ng RNA each; 14.5 at 200 ng; with 61042 40.6.
Series [4] concerns ZFN SBS#61042 (engineered). The settings on record: paired with 61036, K562, 800 ng RNA each; 12.9 at 200 ng; with 61034 26.1.
For series [5], the system named is ZFN SBS#61041 (engineered). The settings on record: paired with 61036, K562, 800 ng RNA each; 14.5 at 200 ng; with 61034 30.1.
The test system of series [6] is ZFN SBS#61035 (engineered). The settings on record: paired with 61029, K562, 800 ng RNA each; 63.6 at 200 ng; with 61028 68.7.
Series [7] relates to ZFN SBS#61033 (engineered). The settings on record: paired with 61029, K562, 800 ng RNA each; 76.9 at 200 ng; with 61028 73.5.
Series [8] relates to ZFN SBS#61028 (engineered). The settings on record: paired with 61033, K562, 800 ng RNA each; 54.3 at 200 ng; with 61035 68.7.
Series [9] concerns ZFN SBS#61029 (engineered). The settings on record: paired with 61033, K562, 800 ng RNA each; 76.9 at 200 ng; with 61035 80.7.

For “TAGGGATAGGTATGAGATATTCACAATT (double strand) [CEP290 site of 61027]”, the activity in series [1] worked out at 27.1 % indels.

Take “CCCCAGTTGTAATTGTGAATATCTCATA (double strand) [CEP290 site of 61034/61036]”: the activity in [2] is 30.1 % indels; in [3], 43.6 % indels.

As to “CCAATAGGGATAGGTATGAGATATTCAC (double strand) [CEP290 site of 61041/61042]”, the results for the activity in series [4] and in series [5] were 40.6 % indels and 43.6 % indels, respectively.

With “CCAATAGGGATAGGTATGAGATATTCAC (double strand) [CEP290 site of 61033/61035]”, the values for the activity in [6] and in [7] were 80.7 % indels and 85.4 % indels, respectively.

Regarding “TGGCCCCAGTTGTAATTGTGAATATCTC (double strand) [CEP290 site of 61028/61029]”, the activity in series [8] amounted to 73.5 % indels; in series [9] it was 85.4 % indels.
